In PMC1240114 one finds Kd data, which are given here for 1 molecule.

As usually defined, the Kd is a measure of binding affinity in units of concentration. Higher therefore signals lower affinity.

This data set has as its target tFKBP*3R (UniProt P62942 2-108, F37V;M50R;E55R;T86R). Description: filter binding.

Sequence of tFKBP*3R (P62942 2-108 F37V/M50R/E55R/T86R): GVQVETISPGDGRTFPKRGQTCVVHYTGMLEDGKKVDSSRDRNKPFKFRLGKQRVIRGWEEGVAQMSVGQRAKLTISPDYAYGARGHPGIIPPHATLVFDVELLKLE

B1: s23 U74C (structured_RNA)
RNA: GGGCAUUGGAUCGCAUUGUCAUUUCAUUGUGGCGGUGCAGUCAAAUGUGAUGCUUCGUUCAGUGACGGGAGGGCUGUGAGUGGUCUGAACGUAAGC
In turn, B1 gave a Kd of 10.8 ± 3.8 nM.
